Experimental data from PMC10298792, “Structural basis for proapoptotic activation of Bak by the noncanonical BH3-only protein Pxt1” (PLOS Biology, 2023).

B3: C-terminal His6-tagged human Bak (residues 23–185;C166S) (domain or fragment, UniProt Q16611 23-185, looked up)
chain: SEEQVAQDTEEVFRSYVFYRHQQEQEAEGVAAPADPEMVTLPLQPSSTMGQVGRQLAIIGDDINRRYDSEFQTMLQHLQPTAENAYEYFTKIATSLFESGINWGRVVALLGFGYRLALHVYQHGLTGFLGQVTRFVVDFMLHHSIARWIAQRGGWVAALNLGN
notes: also called recombinant Bak; source: E. coli BL21(DE3) RIL, purified (Ni-NTA, Superdex 75 gel filtration); not shown: His6, C-terminal, kept

Assays:
[1] = target: T1, recombinant human Bax (residues 1–172;C62S·C126S) (human, UniProt Q07812 1-172, C62S | C126S); test: SEC; separately purified proteins mixed at a molar ratio of 1:3, incubated for 1 h; Superdex 200 increase 10/300 GL; no detergent; peak fractions on SDS–PAGE; conditions: both partners purified
T1 construct: Bax, human, residues 1-172 with C62S and C126S, cloned into pET21a-m1; also called recombinant Bax; source: E. coli BL21(DE3) RIL, purified (Ni-NTA, Superdex 75 gel filtration)

[2] = target: B3; test: ITC; Pxt1 peptide (0.8 mM) titrated into 80 μM recombinant Bak; no detergent; performed as in ref. 27; conditions: both partners purified
[3] = target: the molecule itself; test: SEC; 100 μM Bak, 1 mM Pxt1 BH3 peptide and 1% CHAPS; Superdex 75 10/300 GL

T1 sequence (Q07812 1-172 C62S/C126S): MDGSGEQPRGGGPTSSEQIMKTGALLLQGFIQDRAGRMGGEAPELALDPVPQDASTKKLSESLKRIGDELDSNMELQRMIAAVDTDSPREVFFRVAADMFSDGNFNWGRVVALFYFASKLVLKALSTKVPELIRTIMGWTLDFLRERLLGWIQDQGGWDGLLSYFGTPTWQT

B1: human Pxt1(76–101) BH3 fragment, separately purified, as mixed with recombinant Bax (peptide, UniProt Q8NFP0 76-101, looked up)
chain: EEIIHKLAMQLRHIGDNIDHRMVRED
notes: Pxt1, human, BH3 domain, residues 76-101, cloned into pET21a-m2; it is surmised to be the recombinant pET21a-m2 product and not the synthetic peptide; also called Pxt1 BH3 fragment; human Pxt1 BH3 domain; source: separately purified (the recombinant construct was made in E. coli BL21(DE3) RIL)
Question: Does B1 bind [1]?
Answer: Result: binds

B2: synthetic human Pxt1(76–101) peptide (peptide, UniProt Q8NFP0 76-101, looked up)
peptide: EEIIHKLAMQLRHIGDNIDHRMVRED
notes: Pxt1, human, residues 76-101; also called human Pxt1 BH3; Pxt1 BH3 peptide; source: synthetic peptide (Peptron, Korea)
Question: How did the Kd [2] turn out when B2 was run?
Answer: Its Kd is 15.4 µM.

Question: B3 was tested. Which “stoichiometry N” value [3] did it give?
Answer: Its value is 2.
